Measured values from paper PMC3854531.

Target: sDMA-containing peptide (Bio-…[sDMA]G[sDMA]G[sDMA]G[sDMA]KPN)
Assay: SPR

Substance “His-tagged N-terminal deleted BmPAPI (ΔN-BmPAPI: amino acids 48–629) (domain or fragment)” has a Kd of 27 µM.
